Reference: the supplement of paper PMC9112550, “Optimization of the antimicrobial peptide Bac7 by deep mutational scanning” (BMC Biology, 2022)

What follows are sequences tested on Escherichia coli TOP10 (assay: shrunken log2 fold change of peptide-encoding DNA abundance (4.5 h post-induction vs induction); higher = less antimicrobial activity (less host growth inhibition)). Conditions: time post-induction: 4.5 h; library: site-saturation at positions 5, 18, 19, 20.
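Further: peptides expressed intracellularly from a pBAD plasmid library in pooled LB shake-flask culture, induced with 0.3% L-arabinose, DNA abundance read by NGS, three biological replicates, DESeq2 with apeglm shrinkage.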

Q: RRIRHRPPRLPRPRPRPHAGPRP was tested. Which “shrunken log2 fold change” value did it give?
A: -0.245

Q: For RRIRKRPPRLPRPRPRPVKTPRP, which “shrunken log2 fold change” value is on record?
A: 0.141

Q: For RRIRSRPPRLPRPRPRPDCEPRP, which “shrunken log2 fold change” value is on record?
A: 0.259

Q: With RRIRQRPPRLPRPRPRPKCVPRP as the sequence, how does the “shrunken log2 fold change” value read?
A: -0.018

Q: RRIRERPPRLPRPRPRPFPRPRP was tested. Which “shrunken log2 fold change” value did it give?
A: 0.087

Q: How did the “shrunken log2 fold change” value turn out when RRIRIRPPRLPRPRPRPGCHPRP was run?
A: -0.602

Q: Which “shrunken log2 fold change” value does the source give for RRIRRRPPRLPRPRPRPSAIPRP here?
A: 0.0689

Q: How did the “shrunken log2 fold change” value turn out when RRIRPRPPRLPRPRPRPIDNPRP was run?
A: -0.15

Q: For RRIRSRPPRLPRPRPRPHWHPRP, which “shrunken log2 fold change” value is on record?
A: -0.124

Q: With RRIRLRPPRLPRPRPRPGKCPRP as the sequence, how does the “shrunken log2 fold change” value read?
A: -0.073

Q: For RRIRDRPPRLPRPRPRPYKEPRP, which “shrunken log2 fold change” value is on record?
A: -0.372

Q: How did the “shrunken log2 fold change” value turn out when RRIRKRPPRLPRPRPRPPHMPRP was run?
A: 0.208

Q: Which “shrunken log2 fold change” value does the source give for RRIRWRPPRLPRPRPRPYDIPRP here?
A: -0.00748

Q: Which “shrunken log2 fold change” value does the source give for RRIRKRPPRLPRPRPRPGKQPRP here?
A: 0.599

Q: With RRIRNRPPRLPRPRPRPPKDPRP as the sequence, how does the “shrunken log2 fold change” value read?
A: 0.131

Q: Which “shrunken log2 fold change” value does the source give for RRIRTRPPRLPRPRPRPGQVPRP here?
A: -0.0192

Q: Which “shrunken log2 fold change” value does the source give for RRIRPRPPRLPRPRPRPTVDPRP here?
A: 0.0336

Q: Which “shrunken log2 fold change” value does the source give for RRIRRRPPRLPRPRPRPAFWPRP here?
A: 0.547

Q: How did the “shrunken log2 fold change” value turn out when RRIRLRPPRLPRPRPRPLDPPRP was run?
A: 0.061

Q: Which “shrunken log2 fold change” value does the source give for RRIRTRPPRLPRPRPRPNCTPRP here?
A: -0.485

Q: RRIRRRPPRLPRPRPRPCTCPRP was tested. Which “shrunken log2 fold change” value did it give?
A: -0.111

Q: With RRIRQRPPRLPRPRPRPGHKPRP as the sequence, how does the “shrunken log2 fold change” value read?
A: -0.00306

Q: With RRIRQRPPRLPRPRPRPHLAPRP as the sequence, how does the “shrunken log2 fold change” value read?
A: -0.0779

Q: With RRIRTRPPRLPRPRPRPQRAPRP as the sequence, how does the “shrunken log2 fold change” value read?
A: 0.265

Q: RRIRLRPPRLPRPRPRPCYPPRP was tested. Which “shrunken log2 fold change” value did it give?
A: -0.661

Q: With RRIRPRPPRLPRPRPRPTLDPRP as the sequence, how does the “shrunken log2 fold change” value read?
A: 0.172

Q: Which “shrunken log2 fold change” value does the source give for RRIRMRPPRLPRPRPRPHFTPRP here?
A: -0.173

Q: RRIRLRPPRLPRPRPRPTCVPRP was tested. Which “shrunken log2 fold change” value did it give?
A: 0.0314

Q: How did the “shrunken log2 fold change” value turn out when RRIRARPPRLPRPRPRPNMDPRP was run?
A: -0.00909

Q: For RRIRSRPPRLPRPRPRPAWWPRP, which “shrunken log2 fold change” value is on record?
A: 0.23

Q: With RRIRRRPPRLPRPRPRPEAKPRP as the sequence, how does the “shrunken log2 fold change” value read?
A: 4.76

Q: How did the “shrunken log2 fold change” value turn out when RRIRWRPPRLPRPRPRPNSHPRP was run?
A: -0.16

Q: With RRIRMRPPRLPRPRPRPTETPRP as the sequence, how does the “shrunken log2 fold change” value read?
A: 0.511

Q: Which “shrunken log2 fold change” value does the source give for RRIRLRPPRLPRPRPRPPGPPRP here?
A: 0.359

Q: How did the “shrunken log2 fold change” value turn out when RRIRIRPPRLPRPRPRPLGSPRP was run?
A: -0.41

Q: How did the “shrunken log2 fold change” value turn out when RRIRYRPPRLPRPRPRPFWPPRP was run?
A: 0.0953

Q: Which “shrunken log2 fold change” value does the source give for RRIRCRPPRLPRPRPRPEFRPRP here?
A: -0.0284

Q: How did the “shrunken log2 fold change” value turn out when RRIRLRPPRLPRPRPRPFERPRP was run?
A: 0.198

Q: RRIRCRPPRLPRPRPRPNSCPRP was tested. Which “shrunken log2 fold change” value did it give?
A: -0.394

Q: How did the “shrunken log2 fold change” value turn out when RRIRNRPPRLPRPRPRPVDNPRP was run?
A: 0.104

Q: RRIRERPPRLPRPRPRPDYYPRP was tested. Which “shrunken log2 fold change” value did it give?
A: -0.603

Q: Which “shrunken log2 fold change” value does the source give for RRIRWRPPRLPRPRPRPGETPRP here?
A: 0.174

Q: With RRIRVRPPRLPRPRPRPGCCPRP as the sequence, how does the “shrunken log2 fold change” value read?
A: 0.385

Q: Which “shrunken log2 fold change” value does the source give for RRIRIRPPRLPRPRPRPVKNPRP here?
A: -0.765

Q: Which “shrunken log2 fold change” value does the source give for RRIRNRPPRLPRPRPRPWNYPRP here?
A: -0.101

Q: RRIRQRPPRLPRPRPRPGACPRP was tested. Which “shrunken log2 fold change” value did it give?
A: 0.206

Q: How did the “shrunken log2 fold change” value turn out when RRIRFRPPRLPRPRPRPKWMPRP was run?
A: -0.235

Q: With RRIRHRPPRLPRPRPRPCNDPRP as the sequence, how does the “shrunken log2 fold change” value read?
A: -0.283

Q: Which “shrunken log2 fold change” value does the source give for RRIRARPPRLPRPRPRPYEVPRP here?
A: -0.0785

Q: How did the “shrunken log2 fold change” value turn out when RRIRSRPPRLPRPRPRPCKIPRP was run?
A: -0.177

Q: Which “shrunken log2 fold change” value does the source give for RRIRQRPPRLPRPRPRPMSKPRP here?
A: -0.0682

Q: RRIRARPPRLPRPRPRPRSHPRP was tested. Which “shrunken log2 fold change” value did it give?
A: 0.223

Q: With RRIRGRPPRLPRPRPRPKDPPRP as the sequence, how does the “shrunken log2 fold change” value read?
A: 0.517

Q: How did the “shrunken log2 fold change” value turn out when RRIRERPPRLPRPRPRPTFSPRP was run?
A: -0.216

Q: RRIRWRPPRLPRPRPRPEVEPRP was tested. Which “shrunken log2 fold change” value did it give?
A: -0.016

Q: How did the “shrunken log2 fold change” value turn out when RRIRKRPPRLPRPRPRPARDPRP was run?
A: 1.1

Q: How did the “shrunken log2 fold change” value turn out when RRIRNRPPRLPRPRPRPLKRPRP was run?
A: -0.0368

Q: How did the “shrunken log2 fold change” value turn out when RRIRCRPPRLPRPRPRPIYQPRP was run?
A: -0.306

Q: How did the “shrunken log2 fold change” value turn out when RRIRGRPPRLPRPRPRPFSCPRP was run?
A: -0.262

Q: RRIRARPPRLPRPRPRPIQWPRP was tested. Which “shrunken log2 fold change” value did it give?
A: 0.0649

Q: For RRIRNRPPRLPRPRPRPQAGPRP, which “shrunken log2 fold change” value is on record?
A: -0.128

Q: With RRIRRRPPRLPRPRPRPVCPPRP as the sequence, how does the “shrunken log2 fold change” value read?
A: 0.32

Q: RRIRPRPPRLPRPRPRPCQSPRP was tested. Which “shrunken log2 fold change” value did it give?
A: -0.123

Q: RRIRHRPPRLPRPRPRPFCEPRP was tested. Which “shrunken log2 fold change” value did it give?
A: -0.394

Q: Which “shrunken log2 fold change” value does the source give for RRIRGRPPRLPRPRPRPLSSPRP here?
A: 0.598

Q: How did the “shrunken log2 fold change” value turn out when RRIRWRPPRLPRPRPRPSYSPRP was run?
A: -0.705

Q: Which “shrunken log2 fold change” value does the source give for RRIRMRPPRLPRPRPRPMAVPRP here?
A: -0.00104

Q: With RRIRRRPPRLPRPRPRPEVIPRP as the sequence, how does the “shrunken log2 fold change” value read?
A: -0.0658

Q: Which “shrunken log2 fold change” value does the source give for RRIRIRPPRLPRPRPRPRPKPRP here?
A: 0.567

Q: For RRIRDRPPRLPRPRPRPNLWPRP, which “shrunken log2 fold change” value is on record?
A: -0.0934

Q: For RRIRPRPPRLPRPRPRPLMEPRP, which “shrunken log2 fold change” value is on record?
A: 0.0162

Q: With RRIRHRPPRLPRPRPRPEARPRP as the sequence, how does the “shrunken log2 fold change” value read?
A: 0.192

Q: Which “shrunken log2 fold change” value does the source give for RRIRYRPPRLPRPRPRPAPIPRP here?
A: 0.226

Q: For RRIRCRPPRLPRPRPRPLKWPRP, which “shrunken log2 fold change” value is on record?
A: -0.0792

Q: How did the “shrunken log2 fold change” value turn out when RRIRFRPPRLPRPRPRPMTTPRP was run?
A: 0.000405
